From publication PMC8191317, “Structural and functional analysis of lignostilbene dioxygenases from Sphingobium sp. SYK-6” (The Journal of Biological Chemistry, 2021)

Columns and labels:
LSD2 = biological target: T1, LSD2 (Sphingobium sp. SYK-6, UniProt G2IQG5); assay: oxygraph O2 consumption, E. coli lysate; type: biochemical; settings: 100 μM substrate
T1 construct: gene SLG_36640; pET41b, E. coli BL21(DE3) lysate, co-produced with GroEL/GroES
T1 sequence (G2IQG5 1-490): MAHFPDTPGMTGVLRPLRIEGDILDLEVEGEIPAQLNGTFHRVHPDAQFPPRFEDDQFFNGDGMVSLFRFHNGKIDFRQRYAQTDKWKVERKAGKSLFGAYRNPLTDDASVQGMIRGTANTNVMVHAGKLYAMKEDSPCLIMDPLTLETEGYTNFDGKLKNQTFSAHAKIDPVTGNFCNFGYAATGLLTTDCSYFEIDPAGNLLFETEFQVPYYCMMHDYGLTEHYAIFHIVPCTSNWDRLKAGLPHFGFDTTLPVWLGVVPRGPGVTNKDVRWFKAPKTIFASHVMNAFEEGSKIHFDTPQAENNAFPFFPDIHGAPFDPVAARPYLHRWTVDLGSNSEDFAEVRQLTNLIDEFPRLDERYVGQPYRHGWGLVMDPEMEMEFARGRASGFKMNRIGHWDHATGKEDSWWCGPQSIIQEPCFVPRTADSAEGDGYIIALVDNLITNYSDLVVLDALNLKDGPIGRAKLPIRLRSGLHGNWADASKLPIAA

LSD3 = biological target: T2, LSD3 (Sphingobium sp. SYK-6, UniProt G2IPX7); assay: oxygraph O2 consumption, E. coli lysate; type: biochemical; settings: 100 μM substrate
T2 construct: gene SLG_11300; pET41b, E. coli BL21(DE3) lysate
T2 sequence (G2IPX7 1-491): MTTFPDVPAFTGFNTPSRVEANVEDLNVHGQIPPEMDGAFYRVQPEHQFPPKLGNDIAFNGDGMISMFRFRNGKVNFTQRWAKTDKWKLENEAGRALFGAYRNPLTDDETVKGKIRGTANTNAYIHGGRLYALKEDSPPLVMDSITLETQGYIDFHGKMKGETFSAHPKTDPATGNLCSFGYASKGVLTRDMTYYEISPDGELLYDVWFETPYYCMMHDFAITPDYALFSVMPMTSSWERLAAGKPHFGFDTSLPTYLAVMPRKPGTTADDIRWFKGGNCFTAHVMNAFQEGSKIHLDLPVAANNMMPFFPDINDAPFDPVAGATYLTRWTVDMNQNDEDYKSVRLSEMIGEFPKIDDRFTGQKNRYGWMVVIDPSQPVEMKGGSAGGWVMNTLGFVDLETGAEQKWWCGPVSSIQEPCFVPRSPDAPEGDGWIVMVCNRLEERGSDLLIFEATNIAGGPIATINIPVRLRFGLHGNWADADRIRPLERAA

[1] = biological target: LSD4 (lignostilbene-α,β-dioxygenase 4) from Sphingobium sp. SYK-6 (Sphingobium sp. SYK-6); assay: SEC-MALS; LSD4 at 2 mg/ml in 20 mM HEPES, pH 7.5, 100 mM NaCl, Superdex 75 10/300 GL, 0.4 ml/min, room temperature
[2] = substrate: COc1cc(/C=C/c2ccc(O)cc2)cc(OC)c1; assay: O2 electrode (oxygraph) steady-state kinetics; type: biochemical, Sphingobium sp. SYK-6; settings: air-saturated HEPES I = 0.1 M, pH 7.5, 25 °C
Text: (§1) O2 electrode (oxygraph) steady-state kinetics on LSD4

[3] = substrate: COc1cc(/C=C/c2cc(/C=C/C(=O)O)cc(OC)c2O)ccc1O; assay: O2 electrode (oxygraph) steady-state kinetics; type: biochemical, Sphingobium sp. SYK-6; settings: air-saturated HEPES I = 0.1 M, pH 7.5, 25 °C
Text: as §1

[4] = substrate: COc1cc(/C=C/c2ccc(O)c(OC)c2)ccc1O; assay: O2 electrode (oxygraph) steady-state kinetics; type: biochemical, Sphingobium sp. SYK-6; settings: air-saturated HEPES I = 0.1 M, pH 7.5, 25 °C
Text: as §1

[5] = substrate: Oc1ccc(/C=C/c2cc(O)cc(O)c2)cc1; assay: O2 electrode (oxygraph) steady-state kinetics; type: biochemical, Sphingobium sp. SYK-6; settings: air-saturated HEPES I = 0.1 M, pH 7.5, 25 °C
Text: as §1

Molecule: COc1cc(/C=C/c2cc(/C=C/C(=O)O)cc(OC)c2O)ccc1O [compound 1, 3-(4-hydroxy-3-(4-hydroxy-3-methoxystyryl)-5-methoxyphenyl) acrylate]
- relative activity (LSD2): lysates containing LSD2, LSD3, or LSD4 preferentially cleaved DCA-S over lignostilbene
- relative activity (LSD3): lysates containing LSD2, LSD3, or LSD4 preferentially cleaved DCA-S over lignostilbene

Molecule: LSD4 (lignostilbene-α,β-dioxygenase 4) from Sphingobium sp. SYK-6 (enzyme)
- stoichiometry N [1]: 2

B1: LSD4 (Sphingobium sp. SYK-6) (protein)
chain: MAHFPDTPAFTGFNAPSRIECDIPNLVHEGTIPPELNGAFFRVQPDPQFPPRLGDDISFNGDGMITRFHIHDGQCDIKQRWAKTNKWKLENAAGKALFGSYRNPLTDDESVKGEYRSTANTNAFVFAGKLWAMKEDSPSLTMDPATMETFGFEKFGGKMTGQTFTAHPKVDPLTGNMVAIGYAASGLCTDDVCLYEISPDGELIYEAWFKVPYYCMMHDFGVTKDYLVLHIVPSIGSWDRLEKGLPHFGFDTTLPVYLGIIPRRADLKQEDIRWFKRENCFASHVMNAFQEGTKVHVDVPEAENNMFPFFPDVHGAPFNPQQAMSRLTRWTVDMASNSDEFDSVTRLTETAGEFPRIDDRMTGLPYRYGWMLEMDMKRPVELKGGSAGGFLMNCLFLKDHQTGAEQHWWCGPTSSLQEPAFIPRSKDAPEGDGWIVQVCNRLADHKSDLLIFEALDIEKGPVATVHLPFALRFGLHGNWANAEEIGLAA
notes: residues 2-489 modelled; Fe2+ enzyme, Co-LSD4 for complexes
- Km [2]: 15 ± 2 µM
- kcat [2]: 1.9 ± 0.1 s⁻¹
- kcat/Km [2]: 130000 ± 10000 M⁻¹ s⁻¹
- Km [3]: 12 ± 1 µM
- kcat [3]: 11 ± 1 s⁻¹
- kcat/Km [3]: 900000 ± 100000 M⁻¹ s⁻¹
- Km [4]: 13 ± 1 µM
- kcat [4]: 18 ± 1 s⁻¹
- kcat/Km [4]: 1.4e+06 ± 100000 M⁻¹ s⁻¹
- Km [5]: 22 ± 2 µM
- kcat [5]: 2.1 ± 0.1 s⁻¹
- kcat/Km [5]: 90000 ± 10000 M⁻¹ s⁻¹

B2: LSD4 (Sphingobium sp. SYK-6; S283F) (protein)
chain: MAHFPDTPAFTGFNAPSRIECDIPNLVHEGTIPPELNGAFFRVQPDPQFPPRLGDDISFNGDGMITRFHIHDGQCDIKQRWAKTNKWKLENAAGKALFGSYRNPLTDDESVKGEYRSTANTNAFVFAGKLWAMKEDSPSLTMDPATMETFGFEKFGGKMTGQTFTAHPKVDPLTGNMVAIGYAASGLCTDDVCLYEISPDGELIYEAWFKVPYYCMMHDFGVTKDYLVLHIVPSIGSWDRLEKGLPHFGFDTTLPVYLGIIPRRADLKQEDIRWFKRENCFAFHVMNAFQEGTKVHVDVPEAENNMFPFFPDVHGAPFNPQQAMSRLTRWTVDMASNSDEFDSVTRLTETAGEFPRIDDRMTGLPYRYGWMLEMDMKRPVELKGGSAGGFLMNCLFLKDHQTGAEQHWWCGPTSSLQEPAFIPRSKDAPEGDGWIVQVCNRLADHKSDLLIFEALDIEKGPVATVHLPFALRFGLHGNWANAEEIGLAA
notes: as for B1
- Km [3]: 2.7 ± 0.5 µM
- kcat [3]: 0.035 ± 0.001 s⁻¹
- kcat/Km [3]: 13000 ± 5000 M⁻¹ s⁻¹
- Km [4]: 8.5 ± 0.7 µM
- kcat [4]: 0.14 ± 0.01 s⁻¹
- kcat/Km [4]: 16000 ± 2000 M⁻¹ s⁻¹

B3: LSD4 (Sphingobium sp. SYK-6; S283A) (protein)
chain: MAHFPDTPAFTGFNAPSRIECDIPNLVHEGTIPPELNGAFFRVQPDPQFPPRLGDDISFNGDGMITRFHIHDGQCDIKQRWAKTNKWKLENAAGKALFGSYRNPLTDDESVKGEYRSTANTNAFVFAGKLWAMKEDSPSLTMDPATMETFGFEKFGGKMTGQTFTAHPKVDPLTGNMVAIGYAASGLCTDDVCLYEISPDGELIYEAWFKVPYYCMMHDFGVTKDYLVLHIVPSIGSWDRLEKGLPHFGFDTTLPVYLGIIPRRADLKQEDIRWFKRENCFAAHVMNAFQEGTKVHVDVPEAENNMFPFFPDVHGAPFNPQQAMSRLTRWTVDMASNSDEFDSVTRLTETAGEFPRIDDRMTGLPYRYGWMLEMDMKRPVELKGGSAGGFLMNCLFLKDHQTGAEQHWWCGPTSSLQEPAFIPRSKDAPEGDGWIVQVCNRLADHKSDLLIFEALDIEKGPVATVHLPFALRFGLHGNWANAEEIGLAA
notes: as for B1
- Km [3]: 4.6 ± 0.5 µM
- kcat [3]: 4.1 ± 0.1 s⁻¹
- kcat/Km [3]: 900000 ± 100000 M⁻¹ s⁻¹
- Km [4]: 10 ± 1 µM
- kcat [4]: 15.3 ± 0.4 s⁻¹
- kcat/Km [4]: 1.5e+06 ± 100000 M⁻¹ s⁻¹
